T1: Rvs167 SH3 (RV167_YEAST), P39743
T1 chain: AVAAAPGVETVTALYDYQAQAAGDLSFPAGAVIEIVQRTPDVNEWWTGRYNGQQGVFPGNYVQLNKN

T2: Yfr024 SH3 (LSB3_YEAST), P43603
T2 chain: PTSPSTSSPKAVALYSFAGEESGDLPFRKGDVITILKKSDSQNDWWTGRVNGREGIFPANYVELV

T3: Boi2 SH3 (BOI2_YEAST), P39969
T3 chain: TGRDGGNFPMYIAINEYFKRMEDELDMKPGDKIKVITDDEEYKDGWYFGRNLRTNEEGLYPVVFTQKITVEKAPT

T4: Myo5 SH3 (MYO5_YEAST), Q04439
T4 chain: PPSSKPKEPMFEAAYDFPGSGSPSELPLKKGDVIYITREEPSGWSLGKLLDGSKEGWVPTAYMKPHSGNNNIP

T5: Boi1 SH3 (BOI1_YEAST), P38041
T5 chain: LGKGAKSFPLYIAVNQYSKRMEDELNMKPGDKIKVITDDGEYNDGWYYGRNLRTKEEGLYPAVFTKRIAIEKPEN

T6: Yhr016c SH3 (YSC84_YEAST), P32793
T6 chain: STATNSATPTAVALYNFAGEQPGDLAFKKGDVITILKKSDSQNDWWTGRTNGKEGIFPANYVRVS


Columns and labels:
Assay in all cases: SPOT array
[1] = biological target: T1, Rvs167 SH3 (RV167_YEAST), P39743
[2] = biological target: T2, Yfr024 SH3 (LSB3_YEAST), P43603
[3] = biological target: T3, Boi2 SH3 (BOI2_YEAST), P39969
[4] = biological target: Sho1 SH3 (SHO1_YEAST), P40073
Sequence of Sho1 SH3 (SHO1_YEAST), P40073 (P40073 295-366): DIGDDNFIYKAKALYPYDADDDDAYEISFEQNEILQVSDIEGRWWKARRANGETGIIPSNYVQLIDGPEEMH

[5] = biological target: T4, Myo5 SH3 (MYO5_YEAST), Q04439
[6] = biological target: T5, Boi1 SH3 (BOI1_YEAST), P38041
[7] = biological target: T6, Yhr016c SH3 (YSC84_YEAST), P32793

Binder	normalised SPOT signal, Boehringer light units (BLU); mean over the file's lines of this peptide [1]	normalised SPOT signal, Boehringer light units (BLU); mean over the file's lines of this peptide [2]	normalised SPOT signal, Boehringer light units (BLU); mean over the file's lines of this peptide [3]	normalised SPOT signal, Boehringer light units (BLU); mean over the file's lines of this peptide [4]	normalised SPOT signal, Boehringer light units (BLU); mean over the file's lines of this peptide [5]	normalised SPOT signal, Boehringer light units (BLU); mean over the file's lines of this peptide [6]	normalised SPOT signal, Boehringer light units (BLU); mean over the file's lines of this peptide [7]
NNSTRPIPAIPMDL [YJL133W 8-21]	58900	39600	20.8	1770	247	203	44100
NPFVRINPNRPEAA [YBR136W 500-513]	56.6	344	47.2	35.9	276	444	73.5
NPIPKSVPLHPKSG [YEL019C 6-19]	7.3	88.1	7.9	28.7	364	225	467
NPMQKPVPFVPVLD [YKL182W 1009-1022]	284	2450	50.2	191	420	66.8	299
NQIARQIPFQPWYL [YLR083C 510-523]	100	312	36.1	75.8	248	22.9	50.4
NQIARQIPYQPWYL [YDR107C 515-528]	33.3	145	37.7	47.5	164	105	42.8
NRANKYDPKGPIYN [YOL049W 169-182]	109	58	0	21.7	205	545	77.6
NRKQRSIPLSPIVP [YEL009C 209-222]	307	1250	77.3	183	491	2120	521
NSFRKILPQEPEIW [YBR055C 389-402]	524	1280	219	1820	235	1170	1260
NSFSKNDPNFPILK [YFL036W 156-169]	82.4	58.8	34.2	106	160	203	57.1
NSGEKIYPQEPPIS [YJL020C 582-595]	43.4	22.7	0	25.7	112	53.9	16.6
NSNVRIPPTVPSKI [YGR198W 3-16]	155	1510	16.9	1460	423	178	113
NSTVRRKPHSPNKK [YDR223W 8-21]	722	821	102	147	956	481	1830
NSVIRGSPGLPDTL [YPL066W 13-26]	251	241	35	35.5	151	228	296
NTIIKFDPGRPIYN [YKL178C 251-264]	72.3	63.3	17.6	144	272	49.7	10.4
NTIIKLFPYIPIPV [YLR142W 90-103]	60.5	84.5	29.7	42.7	204	88.2	211

From publication PMC314469, “Protein Interaction Networks by Proteome Peptide Scanning” (PLoS Biology, 2004)
